Results published in article PMC9938795.

Biological target: PRKAR2A, regulatory subunit of protein kinase A (NanoBiT positive control) (UniProt P13861)
Assay: split reporter

Sequence of PRKAR2A, regulatory subunit of protein kinase A (NanoBiT positive control) (P13861 whole entry): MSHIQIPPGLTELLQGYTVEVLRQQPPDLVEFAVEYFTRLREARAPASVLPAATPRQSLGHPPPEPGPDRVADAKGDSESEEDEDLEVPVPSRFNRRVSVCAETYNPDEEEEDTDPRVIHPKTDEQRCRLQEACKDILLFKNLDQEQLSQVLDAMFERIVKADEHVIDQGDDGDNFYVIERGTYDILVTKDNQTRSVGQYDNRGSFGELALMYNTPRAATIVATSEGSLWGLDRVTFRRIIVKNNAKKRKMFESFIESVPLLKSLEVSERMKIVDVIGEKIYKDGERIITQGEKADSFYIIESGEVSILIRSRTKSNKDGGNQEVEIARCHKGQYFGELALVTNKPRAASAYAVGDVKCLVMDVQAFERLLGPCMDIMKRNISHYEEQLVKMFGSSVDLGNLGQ

**Q.** “PRKACA, catalytic subunit of protein kinase A (NanoBiT positive control) (from UniProt P17612 1-351) (natural protein)” was tested. Which nanoluciferase activity (RLU) did it give?
**A.** 800000 RLU
